# Results: ChEMBL document CHEMBL2074568, “Characterization of the transport properties of human multidrug resistance protein 7 (MRP7, ABCC10)” (Mol Pharmacol, 2003)
# B1: ATP-binding cassette sub-family C member 10 (Homo sapiens), Q5T3U5 (protein)
# chain: MERLLAQLCGSSAAWPLPLWEGDTTGHCFTQLVLSALPHALLAVLSACYLGTPRSPDYILPCSPGWRLRLAASFLLSVFPLLDLLPVALPPGAGPGPIGLEVLAGCVAAVAWISHSLALWVLAHSPHGHSRGPLALALVALLPAPALVLTVLWHCQRGTLLPPLLPGPMARLCLLILQLAALLAYALGWAAPGGPREPWAQEPLLPEDQEPEVAEDGESWLSRFSYAWLAPLLARGACGELRQPQDICRLPHRLQPTYLARVFQAHWQEGARLWRALYGAFGRCYLALGLLKLVGTMLGFSGPLLLSLLVGFLEEGQEPLSHGLLYALGLAGGAVLGAVLQNQYGYEVYKVTLQARGAVLNILYCKALQLGPSRPPTGEALNLLGTDSERLLNFAGSFHEAWGLPLQLAITLYLLYQQVGVAFVGGLILALLLVPVNKVIATRIMASNQEMLQHKDARVKLVTELLSGIRVIKFCGWEQALGARVEACRARELGRLRVIKYLDAACVYLWAALPVVISIVIFITYVLMGHQLTATKVFTALALVRMLILPLNNFPWVINGLLEAKVSLDRIQLFLDLPNHNPQAYYSPDPPAEPSTVLELHGALFSWDPVGTSLETFISHLEVKKGMLVGIVGKVGCGKSSLLAAIAGELHRLRGHVAVRGLSKGFGLATQEPWIQFATIRDNILFGKTFDAQLYKEVLEACALNDDLSILPAGDQTEVGEKGVTLSGGQRARIALARAVYQEKELYLLDDPLAAVDADVANHLLHRCILGMLSYTTRLLCTHRTEYLERADAVLLMEAGRLIRAGPPSEILPLVQAVPKAWAENGQESDSATAQSVQNPEKTKEGLEEEQSTSGRLLQEESKKEGAVALHVYQAYWKAVGQGLALAILFSLLLMQATRNAADWWLSHWISQLKAENSSQEAQPSTSPASMGLFSPQLLLFSPGNLYIPVFPLPKAAPNGSSDIRFYLTVYATIAGVNSLCTLLRAVLFAAGTLQAAATLHRRLLHRVLMAPVTFFNATPTGRILNRFSSDVACADDSLPFILNILLANAAGLLGLLAVLGSGLPWLLLLLPPLSIMYYHVQRHYRASSRELRRLGSLTLSPLYSHLADTLAGLSVLRATGATYRFEEENLRLLELNQRCQFATSATMQWLDIRLQLMGAAVVSAIAGIALVQHQQGLANPGLVGLSLSYALSLTGLLSGLVSSFTQTEAMLVSVERLEEYTCDLPQEPQGQPLQLGTGWLTQGGVEFQDVVLAYRPGLPNALDGVTFCVQPGEKLGIVGRTGSGKSSLLLVLFRLLEPSSGRVLLDGVDTSQLELAQLRSQLAIIPQEPFLFSGTVRENLDPQGLHKDRALWQALKQCHLSEVITSMGGLDGELGEGGRSLSLGQRQLLCLARALLTDAKILCIDEATASVDQKTDQLLQQTICKRFANKTVLTIAHRLNTILNSDRVLVLQAGRVVELDSPATLRNQPHSLFQQLLQSSQQGVPASLGGP
# Substrate: C[C@]12CC[C@@H]3c4ccc(O)cc4CC[C@H]3[C@@H]1CC[C@@H]2O[C@@H]1O[C@H](C(=O)O)[C@@H](O)[C@H](O)[C@H]1O
# Test: TP_TRANSPORTER: uptake in membrane vesicles from MRP7-expressing HEK293 cells
# Assay type: functional, cell membranes
# Settings: Membrane vesicle
protein,measurement,value
B1,Km,57.8 µM
